Measured values reported in the nanobody polyreactivity screen of Harvey et al. (2022).

Assay: yeast display, Sf9 membrane polyspecificity reagent, FACS + sequencing; frameworks hold sequencing errors
Outline: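 Galactose induction of a Saccharomyces cerevisiae BJ5465 synthetic nanobody display library ran 36–48 hours. The cells were then stained for 1 hour at 4 °C with 10% biotinylated, detergent-solubilized Sf9 membrane reagent, pulled down on streptavidin microbeads and FACS-sorted into low and high (top ~1%) gates on expression and reagent-binding fluorescence. Labels for polyreactivity follow the gate of origin.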

Sequence	polyreactivity (PSR sort gate)
QVQLVESGGGLVQAGGSLRLSCAASGSIFQWYAMGWYRQAPGKERELVAVISRGGRTNYADSVKGRFTISRDNAKNTVYLQMNSLKPEDTAVYYCAAAVWFERGFSYRWRYGYWGQGTQVTVSS	high polyreactivity
QVQLVESGGGLVQAGGSLRLSCAASGSIFQYNAMGGSRQSPGEDRELVAAISRSGGSTYYADSVKGRFTNSRDNAKNTVYLQMNSLKPEDTAVYYCNAVLGYYSPYDYWVQGTQVTVSS	low polyreactivity
QVQLVESGGGLVQAGGSLRLSCAASGSIFQYNAMGWYRQAPGKEREFVAAITRGGGTYYADSVKGRFTISRDNAKKTVYLQMNSLKPEDTAVYYCAAQSRTSYRFNYWGQGTQVTVSS	high polyreactivity
QVQLVESGGGLVQAGGSLRLSCAASGSIFQYNAMGWYRQAPGKERELVAAINGGGSTYYADSVKGRFTISRDNAKNTVYLQMNSLKPEDTAVYYCAADGGAYSYRGPGKFGIEDSWGQGTQVTVSS	low polyreactivity
QVQLVESGGGLVQAGGSLRLSCAASGSIFQYNVMGRYRQEPGKEREFVADISSSGGSTYYADSVKGRFTISRDNAKNTVYLQMNSLKPEATAVYYCNARSKVAYDRHYYWGQGTQVTVSS	low polyreactivity
QVQLVESGGGLVQAGGSLRLSCAASGSIFQYVYAMGWYRQAPGKERELVATITWSGGTTYYADSVKGRFTISRDNAKNTVYLQMHSLKPEDTADYYCAAESIYYPVAQYYYSFEYWGQGTQVTVSS	low polyreactivity
QVQLVESGGGLVQAGGSLRLSCAASGSIFQYYAMGWYRQAPGKERELVAAISSAGSTKYADSVKGRFTISRDNAKNTVYLQMNSLKPEDTAVYYCAARDPSRHARRAYDYWGQGTQVTVSS	low polyreactivity
QVQLVESGGGLVQAGGSLRLSCAASGSIFQYYAMGWYRQAPGKERELVAVISFSDGSTYYADSVKGRFTISRDNAKNTVYLQMNSLKPEDTAVYYCARRRFSVSRRSYYWGQGTQVTVSS	high polyreactivity
QVQLVESGGGLVQAGGSLRLSCAASGSIFRAYAMGWSRQAPGKERELVAAISIGGRTYYADSVKGRFTISRDNAKNTVYLQMNSLKPEDTAVYYCAAVRSYVKGGMYYWGQGTQVTVSS	low polyreactivity
QVQLVESGGGLVQAGGSLRLSCAASGSIFRAYVMGWYRQAPGTERELVAAISRGGSTNYADSVKGRFTISRDNAKNTVFLQMNSLKPEDTAVYYCNAGRGLREDDYWGQGTQVTVSS	low polyreactivity
QVQLVESGGGLVQAGGSLRLSCAASGSIFRDNVMGWYRQAPGKERELVAAITQRGGSTYYADSVKGRFTISRDNAKNTVYVQMNSLKPEDTAVYYCNARRYVLRYNRFYYWGQGTEVTVSS	high polyreactivity
QVQLVESGGGLVQAGGSLRLSCAASGSIFRFNAMGWNRPAPGKERELVAAITSSGGSTYYADSVKGRFTISRDNAKNTVYLQMNSLKPEDTAVYYCAKRWLYPISYDYWGQGTQVTVSS	high polyreactivity
QVQLVESGGGLVQAGGSLRLSCAASGSIFRFNAMGWYRQAPGKEREFVAAISSGGRTYYADSVKGRFTISRDNAKNTVYGQRNSLKPDDPAVYYCAALWHRRGSWFRQTGSGYDYWGQGTQVTVSS	high polyreactivity
QVQLVESGGGLVQAGGSLRLSCAASGSIFRFNAMGWYRQAPGKERELVAAISASGGSTYYADSVKGRFTISRDNAKNTVYLQMNSLKPEDTAVYYCAARRTAGAYYGYNYWGQGTQVTVSS	high polyreactivity
QVQLVESGGGLVQAGGSLRLSCAASGSIFRFYAMGWYRQAPGKEGELVAAITSGGSTNYADSVKGRFTISRDNAKNTVYLQMNSLKPEDTAVSYCAAVVVYFFIYDYWGQGTQVTVSS	low polyreactivity
QVQLVESGGGLVQAGGSLRLSCAASGSIFRFYAMGWYRQAPGKERELVAAITSGGSTNYADSVKGRFTISRDNAKNTVYLQMNSLKPEDTAVYYCAAELVYFFIYDYWGKGTQVTVSS	low polyreactivity
QVQLVESGGGLVQAGGSLRLSCAASGSIFRFYAMGWYRQAPGKERELVAGISRRGGTTYYADSVKGRFTISRDNAKNTVYLQMNSLKPEDTAVYYCAKRSFGYKSRPAFNYWGQGTQVTVSS	high polyreactivity
QVQLVESGGGLVQAGGSLRLSCAASGSIFRGNAMGCYRQAPWKARELVAGINRAGSTKYADSVKGRFTISRDNAKNTVYVQMISLKQEDTEVYYCAAVRYERGLWSDYWGQGTQVTVSS	high polyreactivity
QVQLVESGGGLVQAGGSLRLSCAASGSIFRGNAMGWYRQAPGKERELVASISYSGGSTYYADSVKGRFTISRDTAKNTVYLQMNSLKPEDTAVYYCAADESVAYPYSGYQYYRHIYDYWGQGTQVTVSS	low polyreactivity
QVQLVESGGGLVQAGGSLRLSCAASGSIFRGYAMGWYRPAPGKERELVAAISWSAGSTYYADSVKGRFTISRDNAKNTVYLQMNSLKPEDTAVYYCAARSPRRKGMDYWGQGTQVTVSS	high polyreactivity
QVQLVESGGGLVQAGGSLRLSCAASGSIFRGYAMGWYRQAPGKERELVAAITSSGARTFYADSVKGRFTISRDNAKNTVYFLMKSLRPEDTAVYYCDAVSANQDFDSWGQGTQVSVSS	high polyreactivity

Sequence	polyreactivity (PSR sort gate)
QVQLVESGGGLVQAGGSLRLSCAASGSIFRGYAMGWYRQAPGKERELVAVITSGGSTDYADSVKGRFTISRDNAKNTVYLQMNSLKPEDTAVYYCAALPGGYYDRGEYDYWGQGTQVTVSS	low polyreactivity
QVQLVESGGGLVQAGGSLRLSCAASGSIFRGYTMGWYRQAPGKERELVAAISRSGGSTYYADSVKGRFTISRDNAKNTVYLQMNSLKPEDTAVYYCNVVYFVTTSAGYDYWGQGTQVTVSS	high polyreactivity
QVQLVESGGGLVQAGGSLRLSCAASGSIFRGYTMGWYRQAPGKERELVAAISWSGGSTYYADSVKGRFTISRDNAKNTVYLQMNSLKPEDTAVYDCAAGDYYHRIFLWYDYWGQGTQVTVSS	low polyreactivity
QVQLVESGGGLVQAGGSLRLSCAASGSIFRGYTMGWYRQAPGKERELVATISWSGGSTYYADTVKGRFTISRDNAKNTVYLQMNSLKREDTAVYYCDARNQCRGYYWGEGTQVTVSS	high polyreactivity
QVQLVESGGGLVQAGGSLRLSCAASGSIFRINDMGWYRQAPGKERELVAAITFSGGSTYADSVKGRFTISRDNAKNTVNLQMNSLKPEDTAVYYCNADGAYWTDYYLYDYWGQGTQVTVSS	low polyreactivity
QVQLVESGGGLVQAGGSLRLSCAASGSIFRIYAMGWYRQAPGKERELVAAISWSGGSTYYADSVKGRFTISRDNANNTVYLQMNSRKPEDTAVYYCAARPRYKYSAYEYWGQGTQVTVSS	high polyreactivity
QVQLVESGGGLVQAGGSLRLSCAASGSIFRKNAMGWYRQAPGKERELVAAITGTGRTTYADSVKGRFTISRDNAKNTVYLQMNSLKPEDTAVYYCATSYHRRYDYWGQGTQVTVSS	low polyreactivity
QVQLVESGGGLVQAGGSLRLSCAASGSIFRKYPMGWYRQAPGKDTELVAAISKRGGSTYYADSVKGRFTISRDNAKNTVYLQMNSLKPEDTAVYYFNALRRYVSVRPTKSDYWGQGTQVTVSS	high polyreactivity
QVQLVESGGGLVQAGGSLRLSCAASGSIFRKYTMGWYKQAPGKERELVAAISGTAGRTYYADSVKGRFTISRDNAKNTVYLKMNSLKPEDTAVYYCAALRFGGYGYNYWGQGTQVTVSS	high polyreactivity
QVQLVESGGGLVQAGGSLRLSCAASGSIFRKYVMGWYRQAPGKERELVAVISSGTGTYYADSVKGRFTISRDNAKYTVYLQMNSLKPEDTAVYYCSSKYFGKWYKYYYWGQGTQVTVSS	high polyreactivity
QVQLVESGGGLVQAGGSLRLSCAASGSIFRLYAMGWYRQAPGKERELVAAISWTVGRTYYADSVKGRFTISRDNAKNTVYVQMNSLKPEDTAVYYCAAEKRILANWRRFDYWGQGTQVTVSS	low polyreactivity
QVQLVESGGGLVQAGGSLRLSCAASGSIFRLYVMGWYRQAPGKERELVATITRSGGNTYYADSVKGRFTISRDNAKNTVYLQMNSLKPEDTAVYYCAAQSAKSGFYPYNRYDYWGQGTQVTVSS	low polyreactivity
QVQLVESGGGLVQAGGSLRLSCAASGSIFRNYAMGWYRQAPGKERELVAAISRTTRTYYADSVKGRFTISRDNAKNTVYLQMNSLKPEDTAVYYCAADYVYAGFWLYYWGQGTQVTVSS	high polyreactivity
QVQLVESGGGLVQAGGSLRLSCAASGSIFRNYAMGWYRQAPGKERELVARISYSGGRTHYADSVKGRFTISRDNAKNTVYFQMNSLNPEDTAVYYCAAPFHFTHFQGNYYWGQGTQVTVSS	low polyreactivity
QVQLVESGGGLVQAGGSLRLSCAASGSIFRPNAMGWYRQAPGKEREFVASISGRVGSTYYADSVKGRFTISRDNAKNTVYLQMYSLKPEDTAVYYCAADSRGGYKRNYWGQGTQVTVSS	high polyreactivity
QVQLVESGGGLVQAGGSLRLSCAASGSIFRPNAMGWYRQAPGKERELVAAITFRGSRTYYADSVKGRFTISRDNAKNPVYLQMNSMKPEDTAVYYCNRLAGQDQEFEYWGQGTQVTVSS	high polyreactivity
QVQLVESGGGLVQAGGSLRLSCAASGSIFRPNAMGWYRQPPGKERELVALITRGGSTNYADSVKGRFTISRDNAKNTVYLQMNSLKPEDTAVYYCAVDLWYPPVWVRVSEFDYWGQGTQVTVSS	low polyreactivity
QVQLVESGGGLVQAGGSLRLSCAASGSIFRPYAMGWYRQAPGKEREFVASISWRGGSTYADSVKGRFTISRDNAKNTVYLQMNSLKPEDTAVYYCAAKFWRYRYYEYDYWGQGTQVTVSS	high polyreactivity
QVQLVESGGGLVQAGGSLRLSCAASGSIFRPYAMGWYRQAPGKERELVAAIRGGGTYYADSVKGRFTISRDNAKNTVYLQMNSLKPEDTAVYYCAQYRYSYYYWGQGTQVTVSS	high polyreactivity
QVQLVESGGGLVQAGGSLRLSCAASGSIFRPYAMGWYRQAPGKERELVAAISDSGGSTYYADSVKGRFTISRDNAKNTVYLQMNSLKPEDTAVYYCNAYSVWYYLASVLEVDYWGQGTQVTVSS	low polyreactivity
